Experiment [1] addresses beta-subunit of ATP synthase (F1 domain) on the cell surface of human hepatocytes (human) (UniProt P06576). The experiment can be described thus: cell-based or functional assay.
Experiment [2] concerns the target ectopic ATP synthase of rat liver (rat) (UniProt P10719). The experiment can be described thus: cell-based or functional assay.
Experiment [3] has as its target beta-subunit of ATP synthase (F1 domain) on the cell surface of human hepatocytes (human) (UniProt P06576).

Sequence of beta-subunit of ATP synthase (F1 domain) on the cell surface of human hepatocytes (human) (P06576 48-529 E274Q limits assumed): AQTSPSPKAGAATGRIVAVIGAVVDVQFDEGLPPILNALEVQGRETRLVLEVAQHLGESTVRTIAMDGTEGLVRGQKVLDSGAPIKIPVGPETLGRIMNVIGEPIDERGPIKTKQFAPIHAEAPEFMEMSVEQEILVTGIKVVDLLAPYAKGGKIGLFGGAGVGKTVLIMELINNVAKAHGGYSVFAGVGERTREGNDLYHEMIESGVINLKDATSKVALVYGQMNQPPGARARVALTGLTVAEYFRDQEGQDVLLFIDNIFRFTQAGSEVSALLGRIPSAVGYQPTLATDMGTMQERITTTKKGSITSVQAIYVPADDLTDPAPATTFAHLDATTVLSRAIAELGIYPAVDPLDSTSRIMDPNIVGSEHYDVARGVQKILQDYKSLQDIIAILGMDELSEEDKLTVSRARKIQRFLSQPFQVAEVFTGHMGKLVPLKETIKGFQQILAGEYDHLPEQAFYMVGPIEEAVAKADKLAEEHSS
Sequence of ectopic ATP synthase of rat liver (rat) (P10719 47-529, chain 1 of 2): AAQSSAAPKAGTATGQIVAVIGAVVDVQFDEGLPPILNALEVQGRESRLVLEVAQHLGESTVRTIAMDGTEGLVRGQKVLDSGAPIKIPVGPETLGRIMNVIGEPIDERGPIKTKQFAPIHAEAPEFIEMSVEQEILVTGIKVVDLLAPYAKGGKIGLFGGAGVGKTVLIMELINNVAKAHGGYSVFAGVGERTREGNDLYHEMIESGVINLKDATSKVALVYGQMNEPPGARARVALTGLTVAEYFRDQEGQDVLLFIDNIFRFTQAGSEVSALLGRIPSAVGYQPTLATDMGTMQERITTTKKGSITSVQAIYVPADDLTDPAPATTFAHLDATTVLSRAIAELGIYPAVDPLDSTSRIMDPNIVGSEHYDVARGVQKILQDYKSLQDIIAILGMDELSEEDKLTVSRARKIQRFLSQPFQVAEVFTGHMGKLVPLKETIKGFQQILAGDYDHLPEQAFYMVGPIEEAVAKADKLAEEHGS
Sequence of ectopic ATP synthase of rat liver (rat) (P15999 44-553, chain 2 of 2, further chain): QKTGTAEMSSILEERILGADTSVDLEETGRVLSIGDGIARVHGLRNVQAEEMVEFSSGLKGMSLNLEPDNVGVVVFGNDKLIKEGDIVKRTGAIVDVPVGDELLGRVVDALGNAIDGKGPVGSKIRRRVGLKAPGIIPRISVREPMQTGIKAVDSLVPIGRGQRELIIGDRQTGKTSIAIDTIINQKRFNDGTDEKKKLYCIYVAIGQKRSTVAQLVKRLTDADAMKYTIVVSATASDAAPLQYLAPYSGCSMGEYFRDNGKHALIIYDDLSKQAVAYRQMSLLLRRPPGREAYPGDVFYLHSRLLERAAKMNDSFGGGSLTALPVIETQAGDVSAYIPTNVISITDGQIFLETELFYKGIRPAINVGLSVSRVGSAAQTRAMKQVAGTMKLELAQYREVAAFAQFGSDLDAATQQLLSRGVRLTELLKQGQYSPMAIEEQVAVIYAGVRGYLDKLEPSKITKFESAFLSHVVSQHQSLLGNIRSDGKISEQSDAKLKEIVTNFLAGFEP

B1: IF1 protein, natural inhibitor protein of mitochondrial F1-ATPase (protein, UniProt P01096 26-109, looked up, species assumed)
ATPase inhibitor, mitochondrial: GSESGDNVRSSAGAVRDAGGAFGKREQAEEERYFRARAKEQLAALKKHHENEISHHAKEIERLQKEIERHKQSIKKLKQSEDDD
On to B1, for which, in experiment [1], the [α-32P]-ADP generated from [α-32P]-ATP at the HepG2 cell surface (HPLC), 100 nM IF1 amounted to 48 % decrease. For the same molecule, in experiment [2], the TG-HDL2 internalisation by perfused rat liver, 45 min, 1 µM IF1 was less than 45 % decrease. In experiment [3], this molecule came in with an IC50 (read off the curve), 125I-TG-HDL2 internalisation by HepG2 cells, without apoA-I of 8 nM.

The values are drawn from patent publication US20040072368A1, “Lipoprotein receptor” (priority 2002, published 2004).
